Results published in paper PMC10770723 (2023).

Target: T1, recombinant Der p 2 (Dermatophagoides pteronyssinus …, UniProt P49278)
T1 chain: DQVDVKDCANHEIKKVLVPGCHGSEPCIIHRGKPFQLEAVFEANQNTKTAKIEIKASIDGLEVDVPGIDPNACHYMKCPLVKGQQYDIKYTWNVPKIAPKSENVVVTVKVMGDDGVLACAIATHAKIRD
Assay: ELISA (coated rDer p 2, Siglec-Fc binding); Unmodified rDer p 2 does not bind; binding to Siglec-9-Fc requires chemical conjugation of α2-3 sialic acids to rDer p 2 (sia-rDer p 2)

- binding result: no binding
B1: Siglec-9–hFc chimera (protein)
chain: QTSKLLTMQSSVTVQEGLCVHVPCSFSYPSHGWIYPGPVVHGYWFREGANTDQDAPVATNNPARAVWEETRDRFHLLGDPHTKNCTLSIRDARRSDAGRYFFRMEKGSIKWNYKHHRLSVNVTALTHRPNILIPGTLESGCPQNLTCSVPWACEQGTPPMISWIGTSVSPLDPSTTRSSVLTLIPQPQDHGTSLTCQVTFPGASVTTNKTVHLNVSYPPQNLTMTVFQGDGTVSTVLGNGSSLSLPEGQSLRLVCAVDAVDSNPPARLSLSWRGLTLCPSQPSNPGVLELPWVHLRDAAEFTCRAQNPLGSQQVYLNVSLQSKATSGVTQG
